# Data: patent publication US20200392528A1, “IMPROVED PLANT EPSP SYNTHASES AND METHODS OF USE” (PIONEER HI-BRED INTERNATIONAL, INC., priority 2017, published 2020)
# Read-outs that look alike come from different tables or passages of the source.
# B1: CP4 EPSPS: Class II EPSPS from Agrobacterium sp. strain CP4 (protein, UniProt Q9R4E4 1-455, looked up)
# 3-phosphoshikimate …: MSHGASSRPATARKSSGLSGTVRIPGDKSISHRSFMFGGLASGETRITGLLEGEDVINTGKAMQAMGARIRKEGDTWIIDGVGNGGLLAPEAPLDFGNAATGCRLTMGLVGVYDFDSTFIGDASLTKRPMGRVLNPLREMGVQVKSEDGDRLPVTLRGPKTPTPITYRVPMASAQVKSAVLLAGLNTPGITTVIEPIMTRDHTEKMLQGFGANLTVETDADGVRTIRLEGRGKLTGQVIDVPGDPSSTAFPLVAALLVPGSDVTILNVLMNPTRTGLILTLQEMGADIEVINPRLAGGEDVADLRVRSSTLKGVTVPEDRAPSMIDEYPILAVAAAFAEGATVMNGLEELRVKESDRLSAVANGLKLNGVDCDEGETSLVVRGRPDGKGLGNASGAAVATHLDHRIAMSFLVMGLVSENPVTVDDATMIATSFPEFMDLMAGLGAKIELSDTKAA
# Tests used:
# [1] = molecular target: CP4 EPSPS (Agrobacterium sp., UniProt Q9R4E4); assay: substrate saturation kinetic analysis (kcat, Km, Ki); type: biochemical, Agrobacterium sp. strain CP4
# Experimental: EPSPS activity was determined by quantifying the phosphate generated from the EPSPS reaction. Release of inorganic phosphate was coupled to its reaction with 2-amino-6-mercapto-7-methylpurine ribonucleoside (MESG), catalyzed by purine nucleoside phosphorylase, according to previously described protocols. To determine the kcat gly, enzyme preparations were normalized to 0.1 mg/ml and four- to six-microliter aliquots of normalized enzyme were added to the wells of a low UV-absorbing 96-well assay plate (Greiner UV-Star). Reactions were started with the addition of 2×147 μl of reaction mixture containing 25 mM Hepes, pH 7.0, 100 mM KCl, 5% ethylene glycol, 30 μM each of PEP and S3P, 0.15 mM MESG, 1.5 U/ml purine nucleoside phosphorylase (Sigma N8264) and 1 mM glyphosate. Absorbance was monitored at 4 sec intervals for 50 sec with a Spectramax plate reader (Molecular Devices). […] Division by the enzyme concentration (0.04 to 0.1 uM, depending on activity) yields “kcat gly” in units of min^−1.
# Combinatorial shuffling, maize native EPSPS—The mutations discovered were used to construct a combinatorial library designed to explore combinations of the desensitizing mutations in novel sequence contexts provided by the newly identified neutral mutations. Note that the amino acid position numbering in this Example 10 refers to the relative position of native maize EPSPS without the N-terminal Met. Therefore, G101A in this Example would be G102A in reference to SEQ ID NO: 1, wherein the maize EPSPS sequence has a Met added at the N-terminal. The diversity used was the same with the addition of G101A, T102 (IALGV) and P106(WA). In all, 43 substitutions at 29 positions were selected. The library was synthesized entirely from oligonucleotides, using the known technique of synthetic shuffling and was termed NatFS (Native, fully synthetic). The vector DNA of the library was transformed into the BL21(DE3) Tuner-AroA knockout strain and the cells were plated onto M9 medium containing either 30 mM glyphosate and 30 μM of the lac operon inducer isopropyl β-D-1-thiogalactopyranoside (IPTG) or 50 mM glyphosate and no IPTG. The 184 colonies that grew on either plate were picked and subjected to a second tier of screening in which EPSPS proteins were purified and activity measured at high (200 μM) and low (50 μM) PEP and S3P, with or without 10 μM glyphosate. Selected variants were subjected to substrate saturation kinetic analysis.
# [2] = molecular target: EPSPS from Agrobacterium sp. strain CP4 (Agrobacterium sp., UniProt Q9R4E4); assay: kgly: enzyme turnover at 30 μM PEP and S3P, 1 mM glyphosate, CP4 EPSPS; type: biochemical
# From the text: A customized parameter for predicting performance in the treated plant that would be a more accurate representation than kcat/Km*Ki. […] However, kcat/Km*Ki may be inadequate for predicting the reaction velocity under the conditions of the application (plants sprayed with glyphosate) because it may neglect concentrations of substrate and inhibitor, factors that are not intrinsic to the enzyme, but on which the reaction rate depends. Therefore, libraries derived from C1 on in FIG. 2 were evaluated with a single rate measurement designed to take all factors in the rate equation for competitive inhibition into account. […] Glyphosate was included at 1 mM, a concentration attainable in tissues, especially meristems, receiving metabolite flow from treated leaves. The pH (7.0), ionic strength (100 mM KCl) and co-solvent concentration (5% ethylene glycol) were also intended to mimic in vivo conditions. The unit for the parameter is reaction rate (μM·min^−1) per enzyme concentration (μM), or min^−1, describing the enzyme turnover under application conditions, which we abbreviate as “kgly”. Although individual kinetic parameters for key variants were obtained, kgly was adopted a parameter needed both for medium throughput screening and for ultimate evaluation of fitness.
molecule,measurement,setting,value
B1,kcat,[1]; CP4 EPSPS,6.85 ± 0.083 s⁻¹
same,Ki,[1]; Ki for glyphosate,1970 ± 276 µM
same,Km,"[1]; apparent Km, PEP present at 10 times its Km, read-out: Km S3P",5.2 ± 0.5 µM
same,Km,"[1]; apparent Km, S3P present at 10 times its Km, read-out: Km PEP",15.5 ± 0.4 µM
same,kcat/Km*Ki,[1]; calculated with Km for PEP,52240
same,Km,[1]; read-out: Km for PEP,15.5 µM
same,kgly,[2],176 ± 1.6 min⁻¹
